Measurements reported in patent US20180119119.

Key:
Test in all cases: cell_activity
[1] = tested on: ExoS54-FLAG-TALEN2 (gfp/Venus right TALEN) (Artificial); settings: paired with TALEN1; T3SS protein injection into EB5 mESC, MOI 100, 3 h; about 30% at MOI 400; indels confirmed by sequencing
[2] = tested on: ExoS54-FLAG-HPRT1-T1 (HPRT1 left TALEN) (Artificial); settings: paired with HPRT1-T2; human iPSC, MOI 100, 3 h, after 6TG selection, no template; overall mutation efficiency about 1%
[3] = tested on: ExoS54-FLAG-HPRT1-T2 (HPRT1 right TALEN) (Artificial); settings: paired with HPRT1-T1; human iPSC, MOI 100, 3 h, after 6TG selection, no template; overall mutation efficiency about 1%
[4] = tested on: ExoS54-FLAG-TALEN1 (gfp/Venus left TALEN) (Artificial); settings: paired with TALEN2; T3SS protein injection into EB5 mESC, MOI 100, 3 h; about 30% at MOI 400; indels confirmed by sequencing

## CTGGACGGCGACGTAAA (double strand) [gfp TALEN right half-site (top strand)]
[1]
  activity (% GFP-negative cells): 20

## GTAGGACTGAACGTCTTGCTC (double strand) [HPRT1 exon 2 TALEN left half-site]
[2]
  activity (% DNA lost XhoI site): 20

## GATGGGAGGCCATCACATTGT (double strand) [HPRT1 exon 2 TALEN right half-site (top strand)]
[3]
  activity (% DNA lost XhoI site): 20

## TTCACCGGGGTGGTGCC (double strand) [gfp TALEN left half-site]
[4]
  activity (% GFP-negative cells): 20
